In publication PMC10978960, “Structure, function and substrate preferences of archaeal S-adenosyl-L-homocysteine hydrolases” (Communications Biology, 2024):

B1: S-adenosyl-L-homocysteine hydrolase from Methanococcus maripaludis (enzyme)
chain: MSNVKDMSLAPSGHLKMEWAKRHMPVLCRIAEEFKNDKPFEGLTIGMALHLEAKTAILAETLLEGGAKIVITGCNPLSTQDDVAAACVEKGMEVYAWRGETNEEYYENLNKVLDSNPDIIIDDGADLIFLIHTERTELIGKIMGGCEETTTGIIRLKSMAEEGALKFPVVNVNDAYTKHLFDNRYGTGQSAMDGIIRTTNLLIAGKNVVVGGYGWCGRGVASRAAGHGANVIITEVNPIRALEAKMDGFTVLKMEEAAKIGDIFVTTTGCKDILRMEHFLLMKDGAVLSNAGHFDNEINKNDLKELSKSVKEARFNIEEYDLGNKKIYLLGEGRLVNLACADGHPCEVMDMSFANQALSAKFIKENKGKLENEVYEIPYEQDFKIALLKLHSMGADIDELSPEQRKYLSDWKEGT
notes: S-adenosyl-L-homocysteine hydrolase (SAHH) of Methanococcus maripaludis; gene bought as a synthetic DNA string and cloned into pET28a(+); The tag counts as kept because protein concentration was determined with the molecular weight including the His6-tag and no cleavage step is described; also called MmaSAHH; SAHH; source: E. coli BL21-Gold(DE3), purified (nickel-NTA, PD-10 desalting)
B2: S-adenosyl-L-homocysteine hydrolase from Pyrococcus furiosus (enzyme)
chain: MDCGKDYCVKDLSLAEEGWKKIDWVSRFMPVLQYIKREFEEKKPFKGVRIAATLHLEMKTAFLLLTLKAGGAEVSAAASNPLSTQDDVVAALAKAGVKVYAIRGESREQYYEFMHKALDIRPNIIIDDGADMISLVHKERQEMLDEIWGGSEETTTGVIRLRAMEKAGILKFPVIAVNDSYMKYLFDNRYGTGQSTWDGIMRATNLLIAGKNVVVVGYGWCGRGIAMRARGLGATVIVVEVDPIKALEARMDGFLVMDMKEAAKIGDIFVTATGNIKCIRREHFELMKDGAIMANAGHFDVEIWKPDLEKLAVEINNPRPNVTEYKLKDGRRLYLLADGRLVNLVAADGHPAEIMDMSFALQAKAAEYIKDNHERLEPKVYILPREIDEMVARIKLESMGIKIEELTEEQKKYLESWEHGT
notes: S-adenosyl-L-homocysteine hydrolase (SAHH) of Pyrococcus furiosus; gene bought as a synthetic DNA string and cloned into pET28a(+); The tag counts as kept because protein concentration was determined with the molecular weight including the His6-tag and no cleavage step is described; One sample was heated at 95 °C for 15 min before crystallisation (8QNO); also called PfuSAHH; SAHH; source: E. coli …
B3: S-adenosyl-L-homocysteine hydrolase from Sulfolobus acidocaldarius (enzyme)
chain: MDYRVKDLSLAEQGRKQIEWAELHMPALMEIRKRFNAEKPLDGIRIGAVLHVTKETAVLVETLKAGGAEIALAGSNPLSTQDDVAAGLAKNGIHVYAWRGETEKDYYDNIREILKYEPHVIMDDGGDLHAYVHENNLTSKIVGGTEETTTGVIRLKAMEEEKVLKYPVIAVNNAFTKYLFDNRIGTGQSTIDGILRATNILIAGKVAVVIGYGWVGRGIASRFKGMGARVIVVESSPFRALEALMDGFDVMTMNRASEIGDIFVTATGNLNVVSRDHILRMKDGAVLANSGHFNVEIDVKGLKEISVETREVRQNLEEYKLRNGKRIYLLADGRLVNLVAAEGHPSEVMDLSFCNQALSVEHLIKNKGKLENKVYNVPIEIDEQVARLKLKALGIEIEELTIEQKEYIKQWKYGT
notes: S-adenosyl-L-homocysteine hydrolase (SAHH) of Sulfolobus acidocaldarius; gene bought as a synthetic DNA string and cloned into pET28a(+); The tag counts as kept because protein concentration was determined with the molecular weight including the His6-tag and no cleavage step is described; also called SacSAHH; SAHH; source: E. coli BL21-Gold(DE3), purified (nickel-NTA, PD-10 desalting)
B4: S-adenosyl-L-homocysteine hydrolase from Mus musculus (enzyme)
chain: MSDKLPYKVADIGLAAWGRKALDIAENEMPGLMRMREMYSASKPLKGARIAGCLHMTVETAVLIETLVALGAEVRWSSCNIFSTQDHAAAAIAKAGIPVFAWKGETDEEYLWCIEQTLHFKDGPLNMILDDGGDLTNLIHTKYPQLLSGIRGISEETTTGVHNLYKMMSNGILKVPAINVNDSVTKSKFDNLYGCRESLIDGIKRATDVMIAGKVAVVAGYGDVGKGCAQALRGFGARVIITEIDPINALQAAMEGYEVTTMDEACKEGNIFVTTTGCVDIILGRHFEQMKDDAIVCNIGHFDVEIDVKWLNENAVEKVNIKPQVDRYWLKNGRRIILLAEGRLVNLGCAMGHPSFVMSNSFTNQVMAQIELWTHPDKYPVGVHFLPKKLDEAVAEAHLGKLNVKLTKLTEKQAQYLGMPINGPFKPDHYRY
notes: S-adenosyl-L-homocysteine hydrolase (SAHH, adenosylhomocysteinase) of Mus musculus; gene bought as a synthetic DNA string and cloned into pET28a(+); The tag counts as kept because protein concentration was determined with the molecular weight including the His6-tag and no cleavage step is described; also called MmSAHH; SAHH; source: E. coli BL21-Gold(DE3), purified (nickel-NTA, PD-10 desalting)

Target: the molecule itself
Assay: crystal structure; co-crystals of the purified enzyme with co-purified NAD+ and a nucleoside ligand (inosine, SIH or adenosine), sitting drop vapour diffusion at room temperature or 22 °C; tetramers built in the respective space groups and analysed with PDBePISA

Stoichiometry N, 4:
B1
B2
B3
B4
